Measured values reported in article PMC2579254 (The EMBO Journal, 2008).

B1: RhoE^1−200 (RhoE-GTP/Mg2+, residues 1–200) (domain or fragment, UniProt P61587 1-200, looked up)
chain: MKERRASQKLSSKSIMDPNQNVKCKIVVVGDSQCGKTALLHVFAKDCFPENYVPTVFENYTASFEIDTQRIELSLWDTSGSPYYDNVRPLSYPDSDAVLICFDISRPETLDSVLKKWKGEIQEFCPNTKMLLVGCKSDLRTDVSTLVELSNHRQTPVSYDQGANMAKQIGAATYIECSALQSENSVRDIFHVATLACVNK
B2: GST–RhoE^WT (natural protein, UniProt P61587 1-244, looked up)
chain: MKERRASQKLSSKSIMDPNQNVKCKIVVVGDSQCGKTALLHVFAKDCFPENYVPTVFENYTASFEIDTQRIELSLWDTSGSPYYDNVRPLSYPDSDAVLICFDISRPETLDSVLKKWKGEIQEFCPNTKMLLVGCKSDLRTDVSTLVELSNHRQTPVSYDQGANMAKQIGAATYIECSALQSENSVRDIFHVATLACVNKTNKNVKRNKSQRATKRISHMPSRPELSAVATDLRKDKAKSCTVM
B3: ROCK-I^1−406 (kinase and N-terminal dimerisation domains), His tag cleaved (domain or fragment, UniProt Q13464 1-406, looked up)
chain: MSTGDSFETRFEKMDNLLRDPKSEVNSDCLLDGLDALVYDLDFPALRKNKNIDNFLSRYKDTINKIRDLRMKAEDYEVVKVIGRGAFGEVQLVRHKSTRKVYAMKLLSKFEMIKRSDSAFFWEERDIMAFANSPWVVQLFYAFQDDRYLYMVMEYMPGGDLVNLMSNYDVPEKWARFYTAEVVLALDAIHSMGFIHRDVKPDNMLLDKSGHLKLADFGTCMKMNKEGMVRCDTAVGTPDYISPEVLKSQGGDGYYGRECDWWSVGVFLYEMLVGDTPFYADSLVGTYSKIMNHKNSLTFPDDNDISKEAKNLICAFLTDREVRLGRNGVEEIKRHLFFKNDQWAWETLRDTVAPVVPDLSSDIDTSNFDDLEEDKGEEETFPIPKAFVGNQLPFVGFTYYSNRRYL

How the values were obtained:
[1] = molecular target: B3; assay: crystal structure
[2] = molecular target: His6-ROCK-I^1−406 (purified without cleavage of the His6 tag) (UniProt Q13464 1-406); assay: pull-down
[3] = molecular target: the molecule itself; assay: crystal structure

Binder: B1
binding result [1]: binds

Binder: B2
binding result [2]: binds

Binder: B3
stoichiometry N [3]: 2
